T1: IL-4-biotin (Homo sapiens, UniProt P05112)
T1 sequence (P05112 25-153): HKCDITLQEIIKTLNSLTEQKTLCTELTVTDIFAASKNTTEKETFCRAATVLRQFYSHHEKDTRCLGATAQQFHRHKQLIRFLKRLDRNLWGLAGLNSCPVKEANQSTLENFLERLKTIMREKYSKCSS

B1: G-CSF: ligand used for competition (specificity control) (protein, UniProt P09919 31-207, looked up)
Granulocyte …: TPLGPASSLPQSFLLKCLEQVRKIQGDGAALQEKLVSECATYKLCHPEELVLLGHSLGIPWAPLSSCPSQALQLAGCLSQLHSGLFLYQGLLQALEGISPELGPTLDTLQLDVADFATTIWQQMEELGMAPALQPTQGAMPAFASAFQRRAGGVLVASHLQSFLEVSYRVLRHLAQP
B2: IL-7RFc: an Fc fusion of the human IL-7 receptor (protein)
chain: ESGYAQNGDLEDAELDDYSFSCYSQLEVNGSQHSLTCAFEDPDVNITNLEFEICGALVEVKCLNFRKLQEIYFIETKKFLLIGKSNICVKVGEKSLTCKKIDLTTIVKPEAPFDLSVVYREGANDFVVTFNTSHLQKKYVKVLMHDVAYRQEKDENKWTHVNLSSTKLTLLQRKLQPAAMYEIKVRSIPDHYFKGFWSEWSPSYYFRTPEINNSSGEMD

What was measured:
[1] = molecular target: T2, TNFRFc (extra-cellular portion of the 80 kD form of the human TNF receptor fused to Fc of human IgG1) (Homo sapiens, UniProt P20333); test: Cell-free TNF binding assay, competition of ligands with TNF-alpha-biotin; settings: 200 ng/ml TNFRFc for coating, 20 ng/ml TNF-alpha-biotin, FIG. 8; for effect on binding of TNF-alpha-biotin to TNFRFc: concentrations used
T2 construct: made in house
Protocol: (§1) The assay plate was washed five times with PBS containing 0.05% Tween 20 and then incubated with 275 μl of PBS containing 5% skim milk powder at room temperature for 60 min and then washed as above. Then a "checkerboard titration" was initially carried out in order to determine a suitable combination of receptor and ligand concentrations for the design of the assay. […] After washing as above, incubation with 100 μl of streptavidin-peroxidase (Amersham; 1:250 in DMEM/FCS) was carried out at room temperature for 30 min and then washed as above. The bound peroxidase was detected by the color produced in 100 μl of tetramethylbenzidine substrate solution (Behringwerke). After incubation at room temperature for 30 min, the extinction at 450 nm was measured.

[2] = molecular target: T3, GM-CSFRFc (extracellular domain of the human GM-CSF receptor fused to Fc of human IgG1) (Homo sapiens, UniProt P15509); test: Cell-free GM-CSF binding assay, competition of ligands with GM-CSF-biotin; settings: 1000 ng/ml GM-CSFRFc for coating, 150 ng/ml GM-CSF-biotin, concentrations used; FIG. 14
T3 construct: made in house; host or cells: COS cells (transient; supernatants used)
Protocol: as §1, with “ELISA plates (Nunc, type B) were coated overnight at 4° C. with 100 μl of an affinity-purified rabbit serum against the CH2 domain of human IgG (Dakopatts). The concentration was 10 μg/ml in PBS (137 mM NaCl, 2.7 mM KCl, 6.1 mM Na2 HPO4, 3.9 mM KH2 PO4, 0.5 mM MgCl2, 0.1 mM CaCl2, pH 7.0). The assay” for “The assay”
Transient expression of pGM-CSFRFc in COS cells was carried out. To do this, COS cells were transfected with pGM-CSFRFc with the aid of DEAE-dextran (EP-A 0325 262).

TNFRFc (human) = test: competition with TNF-alpha-biotin (20 ng/ml) for plate-bound TNFRFc (200 ng/ml for coating), ELISA format
[3] = molecular target: T4, IL-4RFc (extracellular portion of the human receptor for IL-4 fused to Fc of human IgG1) (Homo sapiens, UniProt P24394); test: Cell-free IL-4 binding assay, competition of ligands with IL-4-biotin; settings: 300 ng/ml IL-4-biotin, various concentrations of competitor; FIG. 3
T4 construct: It is composed of the extracellular portion of the human receptor for IL-4
Protocol: as §1, with “ELISA plates (Nunc, type B) were coated overnight at 4° C. with 100 μl of an affinity-purified rabbit serum against the CH2 domain of human IgG (Dakopatts). The concentration was 10 μg/ml in PBS (137 mM NaCl, 2.7 mM KCl, 6.1 mM Na2 HPO4, 3.9 mM KH2 PO4, 0.5 mM MgCl2, 0.1 mM CaCl2, pH 7.0). The assay” for “The assay”

TNF-alpha-biotin = test: soluble TNFRFc competing with plate-bound TNFRFc for TNF-alpha-biotin, ELISA format
IL-4-biotin = molecular target: T1, IL-4-biotin; test: Detection of soluble IL-4 receptor in the cell-free binding assay (competition for IL-4-biotin); settings: plate coated with 300 ng/ml IL-4RFc; FIG. 4
Protocol: as §1, with “ELISA plates (Nunc, type B) were coated overnight at 4° C. with 100 μl of an affinity-purified rabbit serum against the CH2 domain of human IgG (Dakopatts). The concentration was 10 μg/ml in PBS (137 mM NaCl, 2.7 mM KCl, 6.1 mM Na2 HPO4, 3.9 mM KH2 PO4, 0.5 mM MgCl2, 0.1 mM CaCl2, pH 7.0). The assay” for “The assay”

Molecule	inhibition of binding of GM-CSF-biotin to GM-CSFRFc [2]	effect on binding of TNF-alpha-biotin to TNFRFc [1]	also measured
TNF-alpha	do not inhibit	–	inhibition of binding of TNF-alpha-biotin, IC50 [1]: 5 ng/mL
TNF-alpha (ligand)	–	–	IC50 (TNFRFc (human)): 5 ng/mL
IL-1-alpha: interleukin ligand used for competition (specificity control)	do not inhibit	no effect	competition with IL-4-biotin for binding to IL-4RFc [3]: no binding activity
GM-CSF: granulocyte/macrophage colony-stimulating factor, unlabelled ligand	–	no effect	–
IL-4: interleukin 4, unlabelled ligand used for competition	do not inhibit	no effect	–
TNFRFc (Fc fusion)	–	–	IC50 (TNF-alpha-biotin): 0.035 µg/mL
B1	do not inhibit	–	–
B2	–	–	binding activity of soluble receptor/Fc fusion protein in IL-4-biotin competition assay (IL-4-biotin): no binding activity

From US5639597A, “Cell-free receptor binding assays, the production and use thereof” (Behringwerke Aktiengesellschaft, priority 1990, dated 1997)
